Measurements taken from FireProtDB (doi:10.1016/0022-2836(91)90725-l).

Conditions: Bacillus amyloliquefaciens; pH 6.3; 25 °C; Urea; Fluorescence; MES 1.00 M; NaCl 613 mM; reversible: yes; whole UniProt chain shown

B1: Ribonuclease wild type, P00648 (protein)
chain: MMKMEGIALKKRLSWISVCLLVLVSAAGMLFSTAAKTETSSHKAHTEAQVINTFDGVADYLQTYHKLPDNYITKSEAQALGWVASKGNLADVAPGKSIGGDIFSNREGKLPGKSGRTWREADINYTSGFRNSDRILYSSDWLIYKTTDHYQTFTKIR
denaturant m value: 2.22 kcal/mol/M
denaturant midpoint (higher = more stable): 4.57 M
unfolding free energy: 10.2 kcal/mol
